Test results: the supplement of paper PMC7125110
± gives the standard error. Variants at the floor of the assay were thinned out.

B1: glmS ribozyme (parent)
chain: AUAAAAGCGCCAGAACUACAGAAAUGUAGUUGACGAGGAGGAGGUUUAUCGAAUUUUCGGCGGAUGCCUCCAAA

Variants of: B1
Assay: self-cleavage kobs at 2500 uM GlcN6P; higher = faster cleavage; RNA array
Details: with glucosamine-6-phosphate
Procedure, shortened: (§1)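 Glucosamine-6-phosphate (40 μM to 10 mM) in HEPES/KCl/Mg(OAc)2 buffer was flowed over sequenced MiSeq chips, and tiles were imaged over ~14 h. Barcoded ribozyme variants there had been transcribed in situ by E. coli RNA polymerase and were tracked through a hybridised Cy3 probe at 37 °C. One- or two-exponential decay fits to per-tile medians, normalised to baseline and to non-cleaving reference variants, gave kobs. kcat and KM came from weighted Michaelis–Menten fits across concentrations.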

Variant	self-cleavage kobs at 2500 uM GlcN6P
AUAAAAGCGCCAGAACUACAGAAAUGUAGUUAACGAGGUGGAGGUUUAUCGAAUUAUCGGCGGAUGCCUCCAAA [G32A A39U U56A]	5.98e-05 ± 1.5e-05 s⁻¹
AUAAAAGCACCAGAGCUACAGAAAUUUAGUUGACGAGGAGGAGGUUUAUCGAAUUUUCGGCGGAUGCCUCCAAA [G9A A15G G26U]	< 1e-05 s⁻¹
AUAAAAGCGCUACAACUACAGAAAUGUAGUUGACGAGGAGGAGGUGUAUCGAAUUUUCGGCGGUUGCCUCCAAA [C11U G13C U46G A64U]	< 1e-05 s⁻¹
AUAAAAGCGCCACAACUACAGAAAUGUAGCUGACGAGGAGGAGGUUUAUCGAAUUUUCGGCGGAUGCCUCGAAA [G13C U30C C71G]	4.16e-05 ± 2.1e-05 s⁻¹
AUAAAAGCGCCAGAACUACAGAAAUGUAGUUGACGAGGAGGAUGUUCAUCGAAUUUUCGGCGAAUGCCUCCAAA [G43U U47C G63A]	< 1e-05 s⁻¹
AUAAAAGCGCCAGAAUUACAGAAAUGUAGUUGACGAGGAGGAGGUUUAUGGAAUCUUCGGCGGAUGCCUCCAAA [C16U C50G U55C]	7.17e-05 ± 2.1e-05 s⁻¹
AUAAAAGCGCCUGAACUACAGAAAUGUAGUUGGCGAGUAGGAGUUUUAUCGAAUUUUCAGCGGAUGCCUCCAAA [A12U A33G G38U G44U G59A]	< 1e-05 s⁻¹
AUAAAAGCGUCAGAACUACAGAAAUGUAGUUGACGAGGAGGAGGUUUAUCUAAUUUUCGUCGGAUGCCUCCAAA [C10U G51U G60U]	< 1e-05 s⁻¹
AUAAAAGCGCUAGAACUACAGAAAUGUAGUUGACGAGGAGGAGGUAUAUCGAAUUUUCGGCAGAUGCCUCCAAA [C11U U46A G62A]	< 1e-05 s⁻¹
AUAAAAGCCCCAGAACUACAGAAAUGUAGUUGACGAGGAGGAGGUUUAUCGAAUUUUCGGCGGAUGACUGCAAA [G9C C67A C70G]	< 1e-05 s⁻¹
AUAAAAGCGCCAGAACUACAGAAAUGUAGUUGACGAGGAGGAUGUUUAUCGAAAUUUUCGGCGGAUCCUCCAAA [G43U U54A C58U G59C C61G G62C A64G U65A G66U]	< 1e-05 s⁻¹
AUAAAAGCGCGAAAACUACAGAAAUGUAGUUGACGAGGAGAAGGUUUAUCGUCUUUUCGGCGCAUGCGUCCAAA [C11G G13A G41A A52U A53C G63C C68G]	< 1e-05 s⁻¹
AUAAAUACGCCAGAACUACAGAAAUGUAGUUGACGAGGAGGAGGUUUAUCGAAUUUUCGUCUGAGGCCUCCAAA [A6U G7A G60U G62U U65G]	< 1e-05 s⁻¹
AUAAAAGCGCCAGAACUACAGAAAUUUAGUUGACGAGGAGGAGGUUUAUCGAAUUUUUGGCGGAUGCCUCCAAA [G26U C58U]	6.46e-05 ± 1.7e-05 s⁻¹
AUAAAAGUGUCAUAACUACAGAAAUGUACUUGACGAGGAGGAGGUUUAUCGAAUUUUUGGAGGAUGACUCCAAA [C8U C10U G13U G29C C58U C61A C67A]	0.000532 ± 0.00015 s⁻¹
AUAAAAGCGCUAGAACUACAGAAAUGUAGUUGACGGGGAUGAGAUUUAUCGAAUUUUCGGAGGAUGCCUCUAAA [C11U A36G G40U G44A C61A C71U]	< 1e-05 s⁻¹
AUAAAAGCGCCAGGACUACAGAAAUGUAGUUGACGAGGAGGAGGAUUAUCGAAUUUUCGGCGGAUGCCACCAAA [A14G U45A U69A]	0.000801 ± 0.00024 s⁻¹

Variant	self-cleavage kobs at 2500 uM GlcN6P
AUAAAAGCCCCAGAACUACAGAAAUGUAGUUGACGAGGAGGAGGUUUAACGAAAUUUCGGCGGAUGACUCCAAA [G9C U49A U54A C67A]	< 1e-05 s⁻¹
AUAAAACCACCAGUACUACAGAAAUGUAGUUGACGAGGAGGAGGUUUAUAGAAUUUUCGGCGGAUGCCUCCAAA [G7C G9A A14U C50A]	< 1e-05 s⁻¹
AUAAAAGCGCCAGCAUUACAGAAAUGUAGUUGACGAGGAGGAGGUUUAUCGAAUUUUCGGCGGAUGCGUCCAAA [A14C C16U C68G]	9.4e-05 ± 2.8e-05 s⁻¹
AUAAAAGCACCAGAACUACAGAAAUGUAGAUGACGAGGAGGAGGUUUAUCGAAUUUUCGGCGGAUGCCUCCAAA [G9A U30A]	< 1e-05 s⁻¹
AUAAAAGCGCCAGAACUACAGAAAUGUAGUCGACGAGGAGGAGGUUUAUCGAAUUGUCGGCGGAUGACUCCAAA [U31C U56G C67A]	6.88e-05 ± 1.8e-05 s⁻¹
AUAAAAGCGCCUGAACUACAGAAAUGUAGUUGACGAGGUGGAGGUUUUUCGAAUUUUCGGCGGAUGCCUCCAAA [A12U A39U A48U]	0.000147 ± 2.7e-05 s⁻¹
AUAAAAGCCCCAGAACUACAGAAAUGUAGUUGACGAUGAGGAGGUUUAUCGAAUUUUUGGCUGUUGCCUGCAAA [G9C G37U C58U G62U A64U C70G]	< 1e-05 s⁻¹
AUAAAAGCGCCAGAACUACAGAAAUGUAGUUUACGAGGAGGAGGUUUAUCGAAUUUUCAGCGGAUGCGUCCAAA [G32U G59A C68G]	0.000713 ± 0.00028 s⁻¹
AUAAAAGCGCCAGAACUACAGAAAUGUAGUCGUCGAGGAGGAGGUAUAUCGAAUUUCCGGCGGAUGCCUUGAAA [U31C A33U U46A U57C C70U C71G]	< 1e-05 s⁻¹
AUAAAAGCGUCAGAACUACAGAAAUGUAUUUGACGAGGAGGAGGUUUAUCGAAUUUUCGGAGGAUGGCUCCAAA [C10U G29U C61A C67G]	0.000121 ± 2.9e-05 s⁻¹
AUAAAAGCGCCAGAAGUACAGAAAUGUAGUUGACGAGGAUUAGGUUUAUCGAAUUUUCGGCGGAUGCCUCCAAA [C16G G40U G41U]	< 1e-05 s⁻¹
AUAAAAGCGUCAAAACUACAGAAAUGUAGUUGUCGAGGAGGAGGUUUAUCGAAUUUUCGGCGGAUGCCUCCAAA [C10U G13A A33U]	< 1e-05 s⁻¹
AUAAAAGCCCCAGAAAUACAGAAAUGUAGUUGAAGAGGAGGAGCUUUAUCGAAUUUUCGGCGGGUGCCUCCAAA [G9C C16A C34A G44C A64G]	< 1e-05 s⁻¹
AUAAAAGCGCCACAACUACAGAAAUGUAGUUUACGAGUAGGAGGUUGUUCGAAUUUUCGGCGGAUGCCUCCAAA [G13C G32U G38U U47G A48U]	< 1e-05 s⁻¹
AUAAAAGCGCCAGAACUACAGAAAUGUAGUUGUCGAGGAGGAGGUUUAUCCACUUUUCGGCGGAUGCCUCCAAA [A33U G51C A53C]	< 1e-05 s⁻¹
AUAAAAGCGCUAGAGCUACAGAAAUGUAUUUGACGAGGAGGAGGUUUAUCGAAUUUUCGGCGGAUGCCUCCAAA [C11U A15G G29U]	< 1e-05 s⁻¹
AUAAAAGCGCCAGAACUACAGAAAUGUAGUUUACGAGGAGGAGGUUUAUCGAAUUUACGGAGGAUGCCUCCAAA [G32U U57A C61A]	< 1e-05 s⁻¹

Variants of: B1
Assay: self-cleavage kobs at 10000 uM GlcN6P; higher = faster cleavage; RNA array
Details: with glucosamine-6-phosphate
Procedure, shortened: as §1

Variant	self-cleavage kobs at 10000 uM GlcN6P
AUAAAAGCGCUACAACUACAGAAAUGUAGUUGACGAGGAGGAGGUGUAUCGAAUUUUCGGCGGUUGCCUCCAAA [C11U G13C U46G A64U]	< 1e-05 s⁻¹
AUAAAAGCGUCAGAACUACAGAAAUGUAGUUGACGAGGAGGAGGUUUAUCUAAUUUUCGUCGGAUGCCUCCAAA [C10U G51U G60U]	< 1e-05 s⁻¹
AUAAAAGCGCCAGAACUACAGAAAUUUAGUUGACGAGGAGGAGGUUUAUCGAAUUUUUGGCGGAUGCCUCCAAA [G26U C58U]	7.64e-05 ± 1.4e-05 s⁻¹
